This is an account of results in US20260224620A1 (published 2026).

This test deals with CD47 WT (YSD CD47) (UniProt Q08722 19-135). In words: flow cytometry, yeast surface display.

B1: B6H12 (antibody, V domains shown)
VH: EVQLVESGGDLVKPGGSLKLSCAASGFTFSGYGMSWVRQTPDKRLEWVATITSGGTYTYYPDSVKGRFTISRDNAKNTLYLQIDSLKSEDTAIYFCARSLAGNAMDYWGQGTSVTVSS
VL: DIVMTQSPATLSVTPGDRVSLSCRASQTISDYLHWYQQKSHESPRLLIKFASQSISGIPSRFSGSGSGSDFTLSINSVEPEDVGVYYCQNGHGFPRTFGGGTKLEIK
In general, Kd refers to the free concentration of one partner at which half of the binding sites on the other are occupied at equilibrium, for simple one-to-one binding. The low end stands for higher affinity, the high end for lower affinity. For the molecule B1, the Kd is ~0.33 nM.
